Key:
[1] = molecular target: Prog-Albumin偶联物(购自益缪诺，货号PROGO2); test: indirect ELISA, Prog-Albumin conjugate coated at 3 ug/ml, antibody at 125 ng/ml
[2] = molecular target: Prog-Albumin偶联物(购自益缪诺，货号PROGO2); test: indirect ELISA, Prog-Albumin conjugate coated at 3 ug/ml, antibody at 31.25 ng/ml
[3] = molecular target: Prog-Albumin偶联物(购自益缪诺，货号PROGO2); test: indirect ELISA, Prog-Albumin conjugate coated at 3 ug/ml, antibody at 15.625 ng/ml
[4] = molecular target: Prog-Albumin偶联物(购自益缪诺，货号PROGO2); test: biolayer interferometry, AMC sensor, antibody immobilised at 10 ug/ml, Prog-Albumin conjugate in dilution series
[5] = molecular target: Prog-Albumin偶联物(购自益缪诺，货号PROGO2); test: indirect ELISA, Prog-Albumin conjugate coated at 3 ug/ml, antibody at 62.5 ng/ml
[6] = molecular target: Prog-Albumin偶联物(购自益缪诺，货号PROGO2); test: indirect ELISA, Prog-Albumin conjugate coated at 3 ug/ml, antibody at 250 ng/ml

OD450 [1]	OD450 [2]	OD450 [3]	Kd [4]	koff [4]	kon [4]	OD450 [5]	OD450 [6]	Molecule
1.85 OD	0.319 OD	0.148 OD	9.12 nM	0.0002 s⁻¹	21900 M⁻¹ s⁻¹	0.686 OD	2.19 OD	对照 (antibody)
1.92 OD	0.566 OD	0.32 OD	0.168 nM	0.00032 s⁻¹	1.91e+06 M⁻¹ s⁻¹	0.94 OD	2.22 OD	Anti-Prog-5B3mut1 (antibody, V domains shown) VH: QVRLQESGPSLVKPSQTLSLTCTVSGFELTSKAVGWVRQAPGKVPEWLGSIVSGGATYYDPALKSRLTITRDTSKSQVSLSISSVSSEDTAEYWCVRASYAAGIWYFDYWGPGLLVTVSS VL: QAVLTQPPSVSGSLGQRVSLTCSGSSTNIGGGSYVHWYQRLPASGLKTIIYGTSRRPSGVPDRFSGSRSGNTATLTITSLQAEDEADYYCATEDSGSYPFGSGTRLTVLG
2.06 OD	0.603 OD	0.36 OD	0.33 nM	0.00027 s⁻¹	819000 M⁻¹ s⁻¹	1.07 OD	2.36 OD	Anti-Prog-5B3mut2 (antibody, part only; not given: light chain, part only) heavy: QVRLQESGPSLVKPSQTLSLTCTVSGFELTSKAVGWVRQAPGKVPEWLGSIVSGGATYYDPALKSRLTITRDTSKSQVSLSISSVSSEDTAEYWCVRASYAAGIWYFDYWGPGLLVTVSSASTTPPKVYPLTSCCGDTSSSIVTLGCLVSSYMPEPVTVTWNSGALTSGVHTFPAILQSSGLYSLSSVVTVPASTSGAQTFICNVAHPASSTKVDKRVGLSSDYSKCSKPPCVSRPSVFIFPPKPKDSLMITGTPEVTCVVVDVGQGDPEVQFSWFVDNVEVRTARTKPREEQFNSTFRVVSALPIQHDHWTGGKEFKCKVHSKGLPAPLVRTISRAKGQAREPQVYVLAPPQEELSKSTLSVTCLVTGFYPDYIAVEWQRARQPESEDKYGTTTSQLDADGSYFLYSRLRVDKSSWQRGDTYACVVMHEALHNHYTQKSISKPPGK
